In data set [1] the target is Pseudomonas phage LUZ24 small terminase subunit (TerS) (Pseudomonas phage LUZ24). The data set is described as follows: AUC; sedimentation velocity; TerS from heparin peak 2 (850 mM NaCl); 40 000 rpm, 6 °C; 20 mM Tris-HCl pH 7.5, 150 mM NaCl, 3 mM DTT, 2.5% glycerol; 1.3-2.2 mg/ml.
Data set [2] addresses Pseudomonas phage NV1 small terminase subunit (TerS) (Pseudomonas phage NV1). The data set is described as follows: crystal structure; TerS from heparin peak 2 at 7.5 mg/ml, vapor diffusion hanging drop; PaP3 at 3.0 Å, NV1 at 3.95 Å.
The target is the same in data set [3]. The data set is described as follows: AUC; sedimentation velocity; TerS from heparin peak 2 (850 mM NaCl); 40 000 rpm, 6 °C; 20 mM Tris-HCl pH 7.5, 150 mM NaCl, 3 mM DTT, 2.5% glycerol; 1.3-2.2 mg/ml.
The target is the same in data set [4]. The experiment in a line: SEC-SAXS; TerS from heparin peak 2; PaP3 at 1.7 mg/ml, NV1 at 2.0 mg/ml; Superdex 200 10/300 GL; 20 mM Tris-HCl pH 8.0, 150 mM NaCl, 2.5% glycerol, 0.5 mM TCEP; 4 °C. On the technique in general: Size exclusion chromatography separates by hydrodynamic size, large species first.
The target in data set [5] is Pseudomonas phage PaP3 small terminase subunit (TerS) (Pseudomonas phage PaP3). The experiment in a line: crystal structure; TerS from heparin peak 2 at 7.5 mg/ml, vapor diffusion hanging drop; PaP3 at 3.0 Å, NV1 at 3.95 Å.
For data set [6] the target is unchanged. The experiment in a line: AUC; sedimentation velocity; TerS from heparin peak 2 (850 mM NaCl); 40 000 rpm, 6 °C; 20 mM Tris-HCl pH 7.5, 150 mM NaCl, 3 mM DTT, 2.5% glycerol; 1.3-2.2 mg/ml.
Data set [7] shares this target. The data set is described as follows: SEC-SAXS; TerS from heparin peak 2; PaP3 at 1.7 mg/ml, NV1 at 2.0 mg/ml; Superdex 200 10/300 GL; 20 mM Tris-HCl pH 8.0, 150 mM NaCl, 2.5% glycerol, 0.5 mM TCEP; 4 °C.
Data set [8] concerns the target T1, PaP3 TerS WT (small terminase, peak 2) (Pseudomonas phage PaP3, UniProt Q8H9R5 1-152).
T1 sequence: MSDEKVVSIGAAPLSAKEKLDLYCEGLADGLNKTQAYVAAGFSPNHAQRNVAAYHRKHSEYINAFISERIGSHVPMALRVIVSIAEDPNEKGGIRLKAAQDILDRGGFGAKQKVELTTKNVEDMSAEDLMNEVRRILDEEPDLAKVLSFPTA
The data set is described as follows: EMSA; agarose gel, 0-40 uM TerS; EMSA: incubation 37 C 30 min (binding buffer not stated; proteins in GF buffer 20 mM Tris-HCl pH 7.5, 150 mM NaCl, 5 mM bME, 2.5% glycerol); 1% agarose or 4-16% acrylamide gel, 0.5x TBE, 4 C. To be noted: protein: recombinant; tags: GST removed by PreScission protease; chain copies: 9; label: 5' Cy3 on both strands; blunt.

For the molecule “Pseudomonas phage LUZ24 small terminase subunit (TerS) (natural protein)”, in data set [1], the stoichiometry N worked out at 9 mer.
“Pseudomonas phage NV1 small terminase subunit (TerS) (natural protein)”: the stoichiometry N in data set [2] stood at 9; in data set [3], 9 mer; in data set [4], 9.
“Pseudomonas phage PaP3 small terminase subunit (TerS) (natural protein)”: the stoichiometry N worked out at 9 in data set [5], 9 mer in data set [6] and 9 in data set [7].

B1: Cy3-cos (dsDNA)
DNA 1: GCCGGCCCCTTTCCGCGTTA
DNA 2: TAACGCGGAAAGGGGCCGGC
B1: the binding result in data set [8] is “binds”.

In general, stoichiometry N refers to a count of units in the complex or per binding partner.

The values above are taken from article PMC7672466, “Biophysical analysis of Pseudomonas-phage PaP3 small terminase suggests a mechanism for sequence-specific DNA-binding by lateral interdigitation”.
